In patent publication US20200277350A1 (DINGFU BIOTARGET, published 2020):

Biological target: T1, Human IL10R1 (R&D, 9100-R1-050) (human, UniProt Q13651 22-235)
T1 construct: Bought protein coated on the ELISA plate; also called hIL10R1; human IL10R1 proteins
T1 sequence (looked up): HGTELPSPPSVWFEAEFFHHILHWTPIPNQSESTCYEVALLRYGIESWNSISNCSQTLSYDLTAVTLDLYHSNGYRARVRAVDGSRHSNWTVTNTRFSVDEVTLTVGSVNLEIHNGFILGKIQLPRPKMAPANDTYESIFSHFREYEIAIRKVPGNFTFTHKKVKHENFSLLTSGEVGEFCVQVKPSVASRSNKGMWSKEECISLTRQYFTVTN
Assay: ELISA, plate coated with human IL10R1, detection with goat anti-hIgG-HRP
Protocol: Human IL10R1 (R&D, 9100-R1-050) was diluted to 5 μg/mL with coating buffer (50 mM Na₂CO₃, NaHCO₃ pH 9.6), 100 μL/well, overnight at 4° C. After washing, the plates were sealed with 3% BSA-PBS for 1 h at 37° C. Then, all samples were respectively diluted from 10000 ng/mL and were diluted 3-fold to a total of 11 concentrations, with the diluent (1% BSA-PBS) as a control, incubated at 37° C. for 2 h. After washing, Goat anti-hIgG-HRP (Sigma, A0170) was added and incubated at 37° C. for 1 h. The soluble one-component TMB substrate developing solution was added, and the developing was performed in dark at room temperature for 5-10 min. 2 N H₂SO₄ 50 μL/well was added to terminate the color development reaction.

B1: Reverse-(IL10)2-Fc9 (Fc fusion)
chain 1: EPKSSDKTHTCPPCPAPELLGGPSVFLFPPKPKDTLMISRTPEVTCVVVDVSHEDPEVKFNWYVDGVEVHNAKTKPREEQYNSTYRVVSVLTVLHQDWLNGKEYKCKVSNKALPAPIEKTISKAKGQPREPQVYTLPPSRDELTKNQVSLSCGVKGFYPSDIAVEWESNGQPENNYKTTPPVLDSDGSFKLASKLTVDKSRWQQGNVFSCSVMHEALHNHYTQKSLSLSPGKGGGGSGGGGSGGGGSSPGQGTQSENSCTHFPGNLPNMLRDLRDAFSRVKTFFQMKDQLDNLLLKESLLEDFKGYLGCQALSEMIQFYLEEVMPQAENQDPDIKAHVNSLGENLKTLRLRLRRCHRFLPCENKSKAVEQVKNAFNKLQEKGIYKAMSEFDIFINYIEAYMTMKIRNGGGGSGGGGSGGGGSSPGQGTQSENSCTHFPGNLPNMLRDLRDAFSRVKTFFQMKDQLDNLLLKESLLEDFKGYLGCQALSEMIQFYLEEVMPQAENQDPDIKAHVNSLGENLKTLRLRLRRCHRFLPCENKSKAVEQVKNAFNKLQEKGIYKAMSEFDIFINYIEAYMTMKIRN
chain 2: DKTHTCPPCPAPELLGGPSVFLFPPKPKDTLMISRTPEVTCVVVDVSHENPEVKFNWYVDGVEVHNAKTKPREEQYNSTYRVVSVLTVLHQDWLNGKEYKCKVSNKALPAPIEKTISKAKGQPREPQVYTLPPSRDELTKNQVSLWCLVKGFYPSDIAVEWESNGQPENNYKTTPPVLDSDGSFFLYSALTVDKSRWQQGNVFSCSVMHEALHNHYTQKSLSLSPGK
notes: also called proteinaceous heterodimer of Group C
  EC50: 0.0123 mg/L
